Results on 3 compounds are retold here after patent US20130017199A1, “SIMULTANEOUS INHIBITION OF PD-L1/PD-L2” (AMPLIMMUNE ,Inc. a corporation, priority 2009, published 2013).

Experiment [1] has as its target mouse PD-1-Ig (extracellular domain of mouse PD-1 linked to the Fc portion of mouse IgG2a) (mouse) (UniProt Q02242). As to the kind of experiment: capture ELISA; PD-1-Ig coated on plate, COS supernatant, anti-human IgG-HRP. (In an ELISA, binding on a coated surface is turned into a signal by an enzyme label.)
UniProt Q02242, sequence (Q02242 25-169): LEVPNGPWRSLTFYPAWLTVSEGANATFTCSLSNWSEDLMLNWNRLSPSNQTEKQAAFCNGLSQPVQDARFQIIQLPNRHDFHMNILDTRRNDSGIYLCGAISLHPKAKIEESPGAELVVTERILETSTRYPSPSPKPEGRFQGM
For experiment [2], the system named is CT26 colorectal tumor cells. As to the kind of experiment: Established CT26 tumor model, eradication and rechallenge. The conditions noted are these: CTX alone, 100 mg/kg on day 10.

As for “mouse B7-H1-Ig F67A (from UniProt Q9EP73 19-239) (Fc fusion)”, the Binding activity ELISA (%) in experiment [1] was found to be 2%.
On to `O=P1(N(CCCl)CCCl)NCCCO1` (stereo not drawn) [CTX, cyclophosphamide], for which the “outcome of tumor bearing mice” value in experiment [2] was “died as a result of tumor growth or were euthanized”.
In experiment [1], “mouse B7-H1-Ig I115A (from UniProt Q9EP73 19-239) (Fc fusion)” showed a Binding activity ELISA (%) of 3%.
